Target: Recombinant angiotensin-converting enzyme-2 (ACE2) (UniProt Q9BYF1)
Experiment: LSPR (localized surface plasmon resonance)

Chain of Recombinant angiotensin-converting enzyme-2 (ACE2) (Q9BYF1 18-805): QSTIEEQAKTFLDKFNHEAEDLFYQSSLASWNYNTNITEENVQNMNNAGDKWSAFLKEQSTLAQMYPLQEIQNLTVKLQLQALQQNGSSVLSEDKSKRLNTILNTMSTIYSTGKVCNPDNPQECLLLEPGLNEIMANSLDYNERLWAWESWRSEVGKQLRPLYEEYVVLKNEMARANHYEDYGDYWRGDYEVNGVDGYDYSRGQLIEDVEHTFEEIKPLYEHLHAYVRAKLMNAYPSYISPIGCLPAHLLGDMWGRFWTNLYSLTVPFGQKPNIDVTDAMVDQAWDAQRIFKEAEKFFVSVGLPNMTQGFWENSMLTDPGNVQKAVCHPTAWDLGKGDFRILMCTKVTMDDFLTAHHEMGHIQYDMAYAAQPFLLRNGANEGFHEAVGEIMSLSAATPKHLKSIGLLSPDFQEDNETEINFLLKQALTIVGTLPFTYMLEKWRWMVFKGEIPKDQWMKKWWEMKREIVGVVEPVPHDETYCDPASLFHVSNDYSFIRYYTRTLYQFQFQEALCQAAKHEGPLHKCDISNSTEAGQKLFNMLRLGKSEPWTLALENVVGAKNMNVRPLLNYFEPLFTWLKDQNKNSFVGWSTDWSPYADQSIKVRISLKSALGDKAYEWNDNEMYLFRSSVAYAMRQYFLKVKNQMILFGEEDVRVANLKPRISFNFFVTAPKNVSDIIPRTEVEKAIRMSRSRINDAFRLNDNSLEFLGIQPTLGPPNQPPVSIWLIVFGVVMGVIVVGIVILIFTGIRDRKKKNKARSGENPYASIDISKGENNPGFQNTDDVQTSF

SARS-CoV S1 protein (from UniProt P59594 14-667) (domain or fragment)
LOD: 0.01 ng/mL
fold wavelength shift on Au@R/Li against Au@R, at 100 ng/ml: 1.78 fold
fold wavelength shift on Au@R/Li against Au@R, at 1000 ng/ml: 4.51 fold
fold wavelength shift on Au@R/Li against Au@R, at 10,000 ng/ml: 1.95 fold

— publication PMC10615991
